# Assay: soluble on expression in E. coli; label from the status in PepcDB or PDB records
row,Sequence,soluble on expression in E. coli
1,MNAEDVKGFFASRESLDMEQYLVLDYYLESVGDIETALAHFCSEQSTAQWKRVGVDEDFRLVHAAKVIDYEVIEELEQLSYPVKHSETGKIHACRVTIAHPHCNFGPKIPNLLTAVCGEGTYFTPGVPVVKLMDIHFPDTYLADFEGPKFGIEGLRDILNAHGRPIFFGVVKPNIGLSPGEFAEIAYQSWLGGLDIAKDDEMLADVTWSSIEERAAHLGKARRKAEAETGEPKIYLANITDEVDSLMEKHDVAVRNGANALLINALPVGLSAVRMLSNYTQVPLIGHFPFIASFSRMEKYGIHSKVMTKLQRLAGLDAVIMPGFGDRMMTPEEEVLENVIECTKPMGRIKPCLPVPGGSDSALTLQTVYEKVGNVDFGFVPGRGVFGHPMGPKAGAKSIRQAWEAIEQGISIETWAETHPELQAMVDQSLLKKQD,soluble
2,MSLLSYRHAFHAGNHADMLKHFTLFLVLQYFNRKDKPYWYIDTHGGAGVYNLEGSEAQKVGEYRQGIALLRQAQNLPAELSDFAAHIQKILPSPELYCGSPWLAQSLTRVGDKLRLFELHPTDFVHLQNNMGEAGLGKRGQVLREDGYKGLISLLPPPPRRAAVLIDPPYEEKQDYWRVTETLKSALKRFESGCYLIWYPCLSREESRKLPEELKKLVPDNYLHAELHVHAPKADGFGMHGSGMFVINPPYLLAEQLAANLPALTRLLAQDEGARYLLDSKEGHHHHHH,soluble
3,MSRQPLSREDTAILVPALNEALRIREVVTDALTYCSHVIVIDDGSDDGTAECIAGMPVTLIRHPQRMGKGAALRSGFAQAQRLGMRAVMTMDGDGQHKAADFPRLLAAANRHPGCVIIGARMRKRATQPTIRRIGNDFGDWGIAWGCGFRLIDSQSGQRLYPASVFTLPNVPGEGFVFEAQLLISAARQAGARVVAVPIETRYAGTSPGTFRKSHFRLVRDLWNITSHVVKQVWAYGHVWREYRRVRANPVIVDDPDGEFATVPAVTKSNHSSLEHHHHHH,not soluble
4,KLEYRISYDDEKEIKAIVFIIGGYGANANIYFLDSYRNYIAKNFDVVAVHVFYHCFCQRRSDVEKYSAYKYFQEEDIENIKNLLNQFHFSYGEINNDNALFLANSLVKHVENLKMQNKLDHNFKLNFTSTFIPPNGDYQNYGIMAAIDHINALKDLVKRFPKFADLPK,not soluble
5,GMSSSGIEIAKPFVTATTNVLSTMAGIQPIPGQPYVKKNNVAKGDVSAVVGITGHKNGSISVTFTKQCAIAVVKAMLGDDIQDIIQDTKDAVGEVTNMISGQARAALSEMGMTFQGATPSVIMGDGHTISHVTKSPVIAIPFKTNHGEFTVEFCLE,soluble
6,MSLVQFASDTDPIVQPDSLSDAGAAAPVTREAVLGAFLRAHRERLAPADVGLPPGRRRRTPGLRREEVAQLAGLSATWVTWLEQGRPVALSARALASLAAALRLSRAERAYLFELAGRRDPQQAGGEAVPAAVMASVHAIRGPAYLLDRQWNALTWNAAAAELFIGWLDGDSQERNLLRAMFVSAPLQALVEDWPHRAGRLVAEFRAHSIRHADDAPMRALIEGLMAESPAFRAAWLSQDVEDREGGRRGFRHPALGALQFEQLTLWPAAAPGLMLVMLLPAEGHHHHHH,not soluble
7,MEAYLKKLCFEYQVEEKEVKELLARMERVYLDKGETIASATMPEQSLYIIVSGILHTFTTQQGEDKTVRFLSEGDAILCYNTSKHSVKTLTRCVAYYISEDEIEELCATSITFSNLIRQMMEYQFYLKEEMSVNARKLTIRERYLSLLSEIPDILYRVPLKYITYYLGADVTSLGYLAGSCK,not soluble
8,GPGSMARITVELLRRRAEHNEGCLSNLKEIALHQQDIEKIDLIGDACRQLEIIYLCNNYISRIEGLRHLKWLKYLNLAVNNITVIDGLQGCEALERLDLTLNFIAEPTSVQTLLANPFLESLHLTGNPCTKTEGYRAYVIHSLPQLKELDGDEIIRAERITARQAEDVVIEVAEEEAVRVREAERIKQEMLAKGIDPFPPKYNDKGERVYGHTPEERLQILHEQQEMERKKREEQSTPQPGSIAALHQELKRQQQPSQRLTAEEERSKFGRLLLRNEPRVPFHMNQDDAAEFVLTVDPGKFISTTLLSVQVEVDVVRVFIKGKLLQVPVEDELAADAAQVQRSTTTGQLKVMVPYAPEVQERRGGARARLRGLREVTEKASSATGTSAASTTPPPTASPPKVAEPPTRSTLLEIEGRMRGSSSPSLSINQPGTTGTLSSSGKNTTTASSGIVKSVKDISPVPSTMKVSADAATLASQSMTAVLTPTTAASSH,soluble
9,MSLEGRRICVDSCPITCITFCAAHTALGPHHGRSGCAVVIRSMDEKLKRVAHAVSDMGLMSKILGESGSSRNTEDYVELNANEFEMTGTELERQVRIARISDKQDVIDIKDAVYDGDVVVADITRHSTQDRTMEHISDELKQVANEVGGDIVQKDDDQLIITPAGVGIARERLGREGHHHHHH,soluble
10,MGSSHHHHHHSSGLVPRGSHMKLYIIGAGPGDPDLITVKGLKLLQQADVVLYADSLVSQDLIAKSKPGAEVLKTAGMHLEEMVGTMLDRMREGKMVVRVHTGDPAMYGAIMEQMVLLKREGVDIEIVPGVTSVFAAAAAAEAELTIPDLTQTVILTRAEGRTPVPEFEKLTDLAKHKCTIALFLSSTLTKKVMKEFINAGWSEDTPVVVVYKATWPDEKIVRTTVKDLDDAMRTNGIRKQAMILAGWALDPATPWLSGLGENPAIRAMFVAHLHQALNMAVEEAA,soluble
11,MAHHHHHHMERYESIAERAGFARSQVLPRGSGGSSSASVCYENAANYLQHARGADYATASCSVPVDIWDALCQGEASVLRVGQLGEGRQRLIAYESCTTSSHSGDLSSRLASLEKSLDKLLSEFPKTAEELVTLDYNASLCSAAARSVLTAVPSFLSISGLLRTINNKLCSLDGFSREVLPLMRCDDDVSRQCLLVAGRLDTLEEKLRTTEALVAALGHTSAASNAIFERIGARYGETTRAATM,not soluble
12,MSQMELIKKLREATGAGMMDVKRALEDAGWDEEKAVQLLRERGAMKAAKKADREAREGIIGHYIHHNQRVGVLVELNCETDFVARNELFQNLAKDLAMHIAMMNPRYVSAEEIPAEELEKERQIYIQAALNEGKPQQIAEKIAEGRLKKYLEEVVLLEQPFVKDDKVKVKELIQQAIAKIGENIVVRRFCRFELGA,soluble
13,GPGSMHSMVRVGLTNGMVLTGRIVEFDAVTMNMKLDAITDMAVLHPAAGEGCGDSAYETNPAALRCCNSVVVRGCHLRYMDFIDEESDNGRGLQELITAVRVVKPSVPQD,not soluble
14,MSLTPATRNNDSAVAVADAFDDTGDGPPTAARFAALAACWRQPDDDLQAALAAETDTTVDAQSLRAEYTRLFVGPGPSQSPPYESVYRDGERDADLGPVYGSSTQAVARWYSEYGLQPAASESAPPDHLATELEFAAYLREHEGAETLEQFLTEHPRNWVESFARRVRDADPKPFYRTLLNVTVDTLARADTPLEGHHHHHH,not soluble
15,MGSDKIHHHHHHMSLVCSVIFIHHAFNANILDKDYAFSDGEILMVDNAVRTHFEPYERHFKEIGFNENTIKKYLQCTNIQTVTVPVPAKFLRASNVPTGLLNEMIAYLNSEERNHHNFSELLLFSCLSIFAACKGFITLLTNGVLSVSGKVRNIVNMKLAHPWKLKDICDCLYISESLLKKKLKQEQTTFSQILLDARMQHAKNLIRVEGSVNKIAEQCGYASTSYFIYAFRKHFGNSPKRVSKEYRCQRHTGMNTGNTMSALAI,not soluble
16,MGSDKIHHHHHHTVQNAQLSQQHAPCVDNKWPKSRLLSLAGSQFEMTDADRNDMVMRLISCLADTDPELRDAVAFSGLSHWLRANDLTNETVKSLYTKLSGDVRKRKDDPNGVYLPFAILTLSEVARVDRVSPFFEPAERDALSKLAADTMAGIQDYRGFDETIGWRHQVAHSADLLLQLVLNPALSSDDIMELVTSIQHQLSPAGHFYVYGEPERLARPVLYAMLRDDIPDSFWHSQLARWSTPVHIEGWDKAFSSNAGLAERHNRRAFFSALLLGISGSKQPRLLALQPAIQAAMKKLP,not soluble
17,MKIQDYTKEMVDEKSFIDMAYTLLNDKQTTMNLYDIIDEFKSLGGYEYEDIENRIVQFYTDLNTDGRFLNVGENLWGLRDWYSVDDIEEKIAPTIQKFDILDDEDEEDQNLKLLGDDDADEDDDIPAQTDDQETLDESDNDEDDVEMNEADIVIDEDEDEDIAEGEEEAFEDAEDFND,not soluble
